Source: US20260062487A1 (GRITSTONE BIO, published 2026)

Tests used:
[1] = biological target: T1, HLA-PEPTIDE target A*01:01_… (G2) on cells (human); assay: flow cytometry, A375 cells engineered to express the G2 peptide
T1 construct: whole, on cells; also recovered from cell lysates in the IP-MS experiment; also called G2 pHLA; G2 target
Description: Tumor cells engineered to express target peptide were harvested, washed in PBS, and stained with eBioscience Fixable Viability Dye eFluor 450 for 15 minutes at room temperature. Following another wash in PBS+1-2% FBS, cells were resuspended with the indicated molecules at varying concentrations and incubated for 1 hour at 4° C. After another wash, PE-conjugated goat anti-human IgG secondary antibody (Jackson ImmunoResearch) was added at 1:100 to 1:200 for 30 minutes at 4° C. After washing in PBS+1-2% FBS, cells were resuspended in PBS+1-2% FBS and analyzed by flow cytometry. Flow cytometric analysis was performed on the Attune NxT Flow Cytometer (ThermoFisher) using the Attune NxT Software. Data was analyzed using FlowJo.

[2] = biological target: T2, biotinylated refolded G2-pHLA (A*01:01/b2m/…) (human, biotinylated at the C-terminal AviTag); assay: BLI (Octet), biotinylated pHLA on streptavidin sensor, bivalent antibody as analyte (apparent affinity)
T2 construct: Soluble complex caught on streptavidin sensors or MSD plates; also called G2-peptide A*01:01/b2m complex; WT
Excerpt: (§1) The biosensors were then dipped in assay buffer for a baseline. […] The biosensors were finally dipped into wells containing assay buffer to measure the dissociation rate for another 50 seconds. Referencing was completed by having a biosensor with no immobilized ligand dipped into analyte. Kinetic data was processed with Octet™ software using a 1:1 kinetic model with errors within 10%, X² below 3, and R² above 0.9.

[3] = biological target: T2, biotinylated refolded G2-pHLA …; assay: BLI (ForteBio Octet HTX), biotinylated G2-pHLA captured on streptavidin SAX biosensor, antibody in solution, 1:1 kinetic model
Excerpt: as §1

[4] = biological target: T2, biotinylated refolded G2-pHLA …; assay: BLI (ForteBio Octet HTX), biotinylated G2-pHLA captured on streptavidin SAX biosensor, antibody in solution, 1:1 Fit
Excerpt: as §1

[5] = biological target: T2, biotinylated refolded G2-pHLA …; assay: BLI (ForteBio Octet HTX), biotinylated G2-pHLA captured on streptavidin SAX biosensor, antibody in solution, 1:2 Fit
[6] = biological target: T1, HLA-PEPTIDE target A*01:01_… (G2) on …; assay: flow cytometry, anti IgG PE, A375 9mer cells (1e6 copies per cell)
Description: (§2) A375 transduced with luciferase alone served as the negative control. […] Binding was determined by flow cytometery using an anti IgG-PE antibody for detection.

[7] = biological target: T1, HLA-PEPTIDE target A*01:01_… (G2) on …; assay: flow cytometry, A375 cells expressing the CT83 pHLA 9-mer
Description: as §2

CD3 on CD3+ Jurkat cells = biological target: T3, CD3 on CD3+ Jurkat cells (human, UniProt P07766 23-207); assay: flow cytometry, anti IgG PE, CD3+ Jurkat cells
T3 construct: whole, on cells
T3 sequence (P07766 23-207): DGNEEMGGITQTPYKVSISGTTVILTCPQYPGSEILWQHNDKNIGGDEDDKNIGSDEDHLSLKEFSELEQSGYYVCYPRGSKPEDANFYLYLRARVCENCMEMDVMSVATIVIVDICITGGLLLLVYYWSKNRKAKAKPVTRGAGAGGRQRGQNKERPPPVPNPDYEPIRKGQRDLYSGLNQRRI

[8] = biological target: T4, G5 pHLA (HLA-B*35:01 with …) on cells (human); assay: flow cytometry, anti IgG PE, LN229 G5 9mer cells (4500 copies per cell)
T4 construct: whole, on cells

B1: Format 4-G2(1H11) hOKT3a (non-shortened linkers, without DSB) (bispecific antibody, human IgG1, kappa, N297Q)
chain: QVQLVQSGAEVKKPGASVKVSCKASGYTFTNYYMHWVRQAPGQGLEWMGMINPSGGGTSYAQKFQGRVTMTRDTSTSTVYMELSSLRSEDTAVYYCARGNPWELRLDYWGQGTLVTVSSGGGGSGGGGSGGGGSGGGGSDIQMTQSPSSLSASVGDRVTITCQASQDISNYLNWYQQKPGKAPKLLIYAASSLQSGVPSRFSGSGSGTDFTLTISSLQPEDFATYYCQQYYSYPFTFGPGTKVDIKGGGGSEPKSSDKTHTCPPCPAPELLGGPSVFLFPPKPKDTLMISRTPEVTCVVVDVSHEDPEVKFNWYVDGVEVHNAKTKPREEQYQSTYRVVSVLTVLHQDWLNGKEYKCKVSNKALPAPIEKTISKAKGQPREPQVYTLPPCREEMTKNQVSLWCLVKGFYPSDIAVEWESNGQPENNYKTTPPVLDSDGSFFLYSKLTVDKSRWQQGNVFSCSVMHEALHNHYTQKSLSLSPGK
heavy: QVQLVQSGAEVKKPGASVKVSCKASGYTFTNYYMHWVRQAPGQGLEWMGMINPSGGGTSYAQKFQGRVTMTRDTSTSTVYMELSSLRSEDTAVYYCARGNPWELRLDYWGQGTLVTVSSGGGGSGGGGSGGGGSGGGGSDIQMTQSPSSLSASVGDRVTITCQASQDISNYLNWYQQKPGKAPKLLIYAASSLQSGVPSRFSGSGSGTDFTLTISSLQPEDFATYYCQQYYSYPFTFGPGTKVDIKGGGGSGGGGSQVQLVQSGAEVKKPGASVKVSCKASGYTFTRYTMHWVRQAPGQGLEWMGYINPSRGYTNYNQKFKDRVTLTTDKSSSTAYMELSSLRSEDTAVYYCARYYDDHYSLDYWGQGTLVTVSSASTKGPSVFPLAPSSKSTSGGTAALGCLVKDYFPEPVTVSWNSGALTSGVHTFPAVLQSSGLYSLSSVVTVPSSSLGTQTYICNVNHKPSNTKVDKRVEPKSCDKTHTCPPCPAPELLGGPSVFLFPPKPKDTLMISRTPEVTCVVVDVSHEDPEVKFNWYVDGVEVHNAKTKPREEQYQSTYRVVSVLTVLHQDWLNGKEYKCKVSNKALPAPIEKTISKAKGQPREPQVCTLPPSREEMTKNQVSLSCAVKGFYPSDIAVEWESNGQPENNYKTTPPVLDSDGSFFLVSKLTVDKSRWQQGNVFSCSVMHEALHNRFTQKSLSLSPGK
light: DIQMTQSPSSLSASVGDRVTITCSASSSVSYMNWYQQKPGKAPKRLIYDTSKLASGVPSRFSGSGSGTDFTLTISSLQPEDFATYYCQQWSSNPFTFGQGTKLEIKRTVAAPSVFIFPPSDEQLKSGTASVVCLLNNFYPREAKVQWKVDNALQSGNSQESVTEQDSKDSTYSLSSTLTLSKADYEKHKVYACEVTHQGLSSPVTKSFNRGEC
notes: In solution a mixture of 2xscFv and diabody conformations; also called G2 Format 4 bispecific; G2(1H11)hOKT3a 2xscFv
- EC50 [1]: 9.8 nM
- Kd [2]: 18 nM
- koff [3]: 0.00397 s⁻¹
- Kd [4]: 30.3 nM
- koff [4]: 0.0277 s⁻¹
- kon [4]: 913000 M⁻¹ s⁻¹
- Kd [5]: 1640 nM
- koff [5]: 0.324 s⁻¹
- kon [5]: 198000 M⁻¹ s⁻¹

B2: 43-E07 UCHT1v9 (Format 43 31E07-CD3 bispecific antibody) (bispecific antibody, human IgG1, kappa)
chain: EVQLVESGGGLVQPGGSLRLSCAASGYSFTGYTMNWVRQAPGKGLEWVALINPYKGVSTYNQKFKDRFTISVDKSKNTAYLQMNSLRAEDTAVYYCARSGYYGDSDWYFDVWGQGTLVTVSSGGGGSGGGGSDIQMTQSPSSLSASVGDRVTITCRASQEIRRWLAWYQQKPGKAPKLLIYAASNLQSGVPSRFSGSGSGTDFTLTISSLQPEDFATYYCQQSYSTPYTFGQGTKLEIKGGGGSEPKSSDKTHTCPPCPAPEFEGGPSVFLFPPKPKDTLMISRTPEVTCVVVDVSHEDPEVKFNWYVDGVEVHNAKTKPREEQYNSTYRVVSVLTVLHQDWLNGKEYKCKVSNKALPASIEKTISKAKGQPREPQVYTLPPCREEMTKNQVSLWCLVKGFYPSDIAVEWESNGQPENNYKTTPPVLDSDGSFFLYSKLTVDKSRWQQGNVFSCSVMHEALHNHYTQKSLSLSPGK
heavy: QVQLVQSGAEVKKPGASVKVSCKASGFTFTNYLIHWVRQAPGQGLEWMGWINPNSGGTNYAQRLQGRVTMTRDTSTSTVYMELSSLRSEDTAVYYCARDYGAGNDYWGQGTLVTVSSGGGGSGGGGSDIQMTQSPSSLSASVGDRVTITCRASQDIRNYLNWYQQKPGKAPKLLIYYTSRLESGVPSRFSGSGSGTDYTLTISSLQPEDFATYYCQQGNTLPWTFGQGTKVEIKGGGGSGGGGSQVQLVQSGAEVKKPGASVKVSCKASGFTFTNYLIHWVRQAPGQGLEWMGWINPNSGGTNYAQRLQGRVTMTRDTSTSTVYMELSSLRSEDTAVYYCARDYGAGNDYWGQGTLVTVSSASTKGPSVFPLAPSSKSTSGGTAALGCLVKDYFPEPVTVSWNSGALTSGVHTFPAVLQSSGLYSLSSVVTVPSSSLGTQTYICNVNHKPSNTKVDKRVEPKSCDKTHTCPPCPAPEFEGGPSVFLFPPKPKDTLMISRTPEVTCVVVDVSHEDPEVKFNWYVDGVEVHNAKTKPREEQYNSTYRVVSVLTVLHQDWLNGKEYKCKVSNKALPASIEKTISKAKGQPREPQVCTLPPSREEMTKNQVSLSCAVKGFYPSDIAVEWESNGQPENNYKTTPPVLDSDGSFFLVSKLTVDKSRWQQGNVFSCSVMHEALHNRFTQKSLSLSPGK
light: DIQMTQSPSSLSASVGDRVTITCRASQEIRRWLAWYQQKPGKAPKLLIYAASNLQSGVPSRFSGSGSGTDFTLTISSLQPEDFATYYCQQSYSTPYTFGQGTKLEIKRTVAAPSVFIFPPSDEQLKSGTASVVCLLNNFYPREAKVQWKVDNALQSGNSQESVTEQDSKDSTYSLSSTLTLSKADYEKHKVYACEVTHQGLSSPVTKSFNRGEC
notes: also called 43-E07 hUCHT1v9; 43-31E07-GGGGS-UCHT1v9
- EC50 (read off the curve) [6]: ~0.3 nM
- fold increase in binding against 41-E07 UCHT1v9 [7]: ~10 fold

B3: 41-G5(1C12) UCHT1v9 diabody (bispecific antibody, human IgG1, kappa)
chain: QVQLVQSGAEVKKPGSSVKVSCKASGGTFSNFGVSWLRQAPGQGLEWMGGIIPILGTANYAQKFQGRVTITADESTSTAYMELSSLRSEDTAVYYCATPTNSGYYGPYYYYGMDVWGQGTTVTVSSGGGGSGGGGSDIQMTQSPSSLSASVGDRVTITCRASQSISSWLAWYQQKPGKAPKLLIYAASTLQSGVPSRFSGSGSGTDFTLTISSLQPEDFATYYCQQSYSIPLTFGGGTKVEIKGGGGSEPKSSDKTHTCPPCPAPEFEGGPSVFLFPPKPKDTLMISRTPEVTCVVVDVSHEDPEVKFNWYVDGVEVHNAKTKPREEQYNSTYRVVSVLTVLHQDWLNGKEYKCKVSNKALPASIEKTISKAKGQPREPQVYTLPPCREEMTKNQVSLWCLVKGFYPSDIAVEWESNGQPENNYKTTPPVLDSDGSFFLYSKLTVDKSRWQQGNVFSCSVMHEALHNHYTQKSLSLSPGK
heavy: QVQLVQSGAEVKKPGSSVKVSCKASGGTFSNFGVSWLRQAPGQGLEWMGGIIPILGTANYAQKFQGRVTITADESTSTAYMELSSLRSEDTAVYYCATPTNSGYYGPYYYYGMDVWGQGTTVTVSSGGGGSGGGGSDIQMTQSPSSLSASVGDRVTITCRASQSISSWLAWYQQKPGKAPKLLIYAASTLQSGVPSRFSGSGSGTDFTLTISSLQPEDFATYYCQQSYSIPLTFGGGTKVEIKGGGGSGGGGSEVQLVESGGGLVQPGGSLRLSCAASGYSFTGYTMNWVRQAPGKGLEWVALINPYKGVSTYNQKFKDRFTISVDKSKNTAYLQMNSLRAEDTAVYYCARSGYYGDSDWYFDVWGQGTLVTVSSASTKGPSVFPLAPSSKSTSGGTAALGCLVKDYFPEPVTVSWNSGALTSGVHTFPAVLQSSGLYSLSSVVTVPSSSLGTQTYICNVNHKPSNTKVDKRVEPKSCDKTHTCPPCPAPEFEGGPSVFLFPPKPKDTLMISRTPEVTCVVVDVSHEDPEVKFNWYVDGVEVHNAKTKPREEQYNSTYRVVSVLTVLHQDWLNGKEYKCKVSNKALPASIEKTISKAKGQPREPQVCTLPPSREEMTKNQVSLSCAVKGFYPSDIAVEWESNGQPENNYKTTPPVLDSDGSFFLVSKLTVDKSRWQQGNVFSCSVMHEALHNRFTQKSLSLSPGK
light: not shown
notes: also called 41-G5(1C12) hUCHT1v9; 41-G5 UCHT1v9
- EC50 (read off the curve) (CD3 on CD3+ Jurkat cells): ~4 nM
- EC50 (read off the curve) [8]: ~4 nM
